Measurements reported in PMC4459711.
Like-named read-outs stand apart in the source and are kept apart here.

What was measured:
Experiment in all cases: X-ray crystallography
[1] = target: T1, L1750 (LACV L protein, residues 1-1750) (La Crosse virus (strain …, UniProt A5HC98 1-1750))
[2] = target: T1, L1750 (LACV L protein, residues 1-1750); remark: listed apart in the source
[3] = target: T1, L1750 (LACV L protein, residues 1-1750); remark: listed apart in the source

T1 sequence (A5HC98 1-1750): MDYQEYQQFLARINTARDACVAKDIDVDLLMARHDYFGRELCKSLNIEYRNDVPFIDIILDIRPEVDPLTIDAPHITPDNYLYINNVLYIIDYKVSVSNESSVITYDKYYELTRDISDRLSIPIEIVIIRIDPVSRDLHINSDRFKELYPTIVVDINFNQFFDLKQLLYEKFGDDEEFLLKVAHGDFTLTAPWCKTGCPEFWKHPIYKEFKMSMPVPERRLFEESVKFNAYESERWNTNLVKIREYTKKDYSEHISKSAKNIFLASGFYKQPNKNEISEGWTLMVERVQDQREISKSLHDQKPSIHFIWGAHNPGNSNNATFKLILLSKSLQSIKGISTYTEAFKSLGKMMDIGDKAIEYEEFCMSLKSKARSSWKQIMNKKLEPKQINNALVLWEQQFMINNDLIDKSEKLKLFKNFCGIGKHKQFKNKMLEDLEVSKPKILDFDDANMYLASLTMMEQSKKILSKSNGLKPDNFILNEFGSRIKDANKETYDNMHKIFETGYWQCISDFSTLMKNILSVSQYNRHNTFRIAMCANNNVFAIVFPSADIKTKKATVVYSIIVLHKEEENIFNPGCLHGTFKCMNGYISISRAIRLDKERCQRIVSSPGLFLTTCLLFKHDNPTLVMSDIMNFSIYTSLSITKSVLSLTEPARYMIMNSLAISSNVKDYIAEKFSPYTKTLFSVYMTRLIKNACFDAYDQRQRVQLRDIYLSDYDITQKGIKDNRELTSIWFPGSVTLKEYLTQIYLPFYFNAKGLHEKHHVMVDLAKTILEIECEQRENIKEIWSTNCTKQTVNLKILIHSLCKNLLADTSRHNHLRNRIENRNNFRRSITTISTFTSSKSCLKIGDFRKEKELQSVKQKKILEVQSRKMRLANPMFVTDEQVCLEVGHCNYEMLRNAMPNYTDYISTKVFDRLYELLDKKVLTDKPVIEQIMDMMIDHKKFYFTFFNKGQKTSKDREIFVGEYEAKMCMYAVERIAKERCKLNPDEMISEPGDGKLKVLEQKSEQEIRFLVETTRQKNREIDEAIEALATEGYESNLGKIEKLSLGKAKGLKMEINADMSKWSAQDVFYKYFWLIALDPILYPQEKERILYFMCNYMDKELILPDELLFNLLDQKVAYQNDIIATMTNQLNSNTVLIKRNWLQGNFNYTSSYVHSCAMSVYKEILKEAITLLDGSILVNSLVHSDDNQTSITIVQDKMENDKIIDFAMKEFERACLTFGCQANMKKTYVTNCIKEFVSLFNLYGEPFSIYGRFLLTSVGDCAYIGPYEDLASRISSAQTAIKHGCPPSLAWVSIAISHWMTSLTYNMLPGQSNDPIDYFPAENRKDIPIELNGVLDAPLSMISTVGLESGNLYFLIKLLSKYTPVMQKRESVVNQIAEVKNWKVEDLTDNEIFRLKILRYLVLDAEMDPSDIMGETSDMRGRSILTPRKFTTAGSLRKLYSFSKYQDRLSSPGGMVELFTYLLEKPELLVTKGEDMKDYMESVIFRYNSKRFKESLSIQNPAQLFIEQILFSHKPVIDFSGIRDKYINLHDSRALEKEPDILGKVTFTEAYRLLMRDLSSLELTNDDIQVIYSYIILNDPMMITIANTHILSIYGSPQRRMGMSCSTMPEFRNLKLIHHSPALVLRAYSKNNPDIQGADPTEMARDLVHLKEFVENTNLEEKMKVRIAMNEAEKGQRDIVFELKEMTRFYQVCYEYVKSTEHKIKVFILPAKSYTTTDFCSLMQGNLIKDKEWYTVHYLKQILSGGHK

B1: 5' vRNA 1-10 (hook) (structured_RNA)
RNA: AGUAGUGUGC
modifications: 5' phosphate
binding result [1]: binds

B2: 5' vRNA 1-11 (structured_RNA)
RNA: AGUAGUGUGCU
binding result [2]: binds

B3: 3' vRNA 1-16 / 5' vRNA 9-16 partial duplex (mixed)
RNA 1: UUGGUAGUACACUACU
RNA 2: GCUACCAA
binding result [3]: binds
